From publication PMC7897279

Target: DNA-PKcs;Ku70;Ku80 (Homo sapiens (HeLa cells);Homo …, UniProt P78527;P12956;P13010 1-4128;1-609;1-732, ||)

B1: 40N (nicked 40 bp DNA) (dsDNA)
DNA 1: GCATGCTCTACTGCTTCGATATCG
DNA 2: AAGCAGTAGAGCATGC
DNA 3: GCATGCTCTACTGCTTCGATATCG
DNA 4: AAGCAGTAGAGCATGC
modifications: none stated
  binding result: binds
